In a protein production outcome set (Wang et al. 2014):

assay: label from the status in PepcDB records

Row | Sequence | protein production
1 | MTSVTDRSAHSAERSTEHTIDIHTTAGKLAELHKRREESLHPVGEDAVEKVHAKGKLTARERIYALLDEDSFVELDALAKHRSTNFNLGEKRPLGDGVVTGYGTIDGRDVCIFSQDATVFGGSLGEVYGEKIVKVQELAIKTGRPLIGINDGAGARIQEGVVSLGLYSRIFRNNILASGVIPQISLIMGAAAGGHVYSPALTDFVIMVDQTSQMFITGPDVIKTVTGEEVTMEELGGAHTHMAKSGTAHYAASGEQDAFDYVRELLSYLPPNNSTDAPRYQAAAPTGPIEENLTDEDLELDTLIPDSPNQPYDMHEVITRLLDDEFLEIQAGYAQNIVVGFGRIDGRPVGIVANQPTHFAGCLDINASEKAARFVRTCDCFNIPIVMLVDVPGFLPGTDQEYNGIIRRGAKLLYAYGEATVPKITVITRKAYGGAYCVMGSKDMGCDVNLAWPTAQIAVMGASGAVGFVYRQQLAEAAANGEDIDKLRLRLQQEYEDTLVNPYVAAERGYVDAVIPPSHTRGYIGTALRLLERKIAQLPPKKHGNVPL | not failed
2 | MTTANTPVRPKSAIDAVADAYTEKLIELNPSFATTLGLPGHETEYQDYSPAGAAAHAEATRLALEALAGLEPSDDVDAVTLDAMRERLGLELEIHQSGWDAADLNNIASPAQDIRAIFDLMPTDTVEHWEHIAGRAANVPGAIEGYIASLRAAKDDRKVAAARQIRIVIEQTGRYAAEDGFFAKMAADASLGDAPLPAEVQDKLDAGTSAARSAYSALGAFLRDELLPVAPEKDAVGRERYSLASRSFIGAEVDLEETYAWGVQELERLISEQEKVAGQIKPGASIEEAKSILNNDPARQIKGTDALKAWMQELSDRAVSELADVHFDIPDVMKTLECMIAPTDEGGIYYTGPSDDFSRPGRMWWSVPAGEDTFTTWSETTTVFHEGVPGHHLQVATATYRRELLNNWRRNVCWVSGHGEGWALYAEQLMLELGYLKDPGDHMGMLDGQRMRAARVVFDIGVHLELPVPERWGTGTWTPEKGFDFLKANLDISEGQLQFEFTRYLGWPGQAPSYKVGQRLWEQIRAELESREGFDLKSFHSKALNIGSVGLDVLRRALL | not failed
3 | MTTCAPAVPAQLDVAGDLLALLRDTTTEPRPDIQLEALTLAVAADLPVLLWGEPGIGKTAALTQLATALDLPLTTVIASVHEPSDFSGLPVVGDDPAEQGVPMAPPDWAVRLVRAGRGLLFLDELSTAPPAVQAALLRLVLERRIGALRLPPGVRIVAAANPRSSAADGWELSPPLANRFVHLQWTHDQDVVVRGLGGTWPRAALPSLDPGGLDGAVRYARRAVCAFLTARPGLVHRLPSGETRRGGAWPSPRSWEMTLCLIAFATAAGSSREVLSLLVRGTVGDGPGLELMASLDRMDLPDPETLLADPAGAVLPERGDLRQAVLDGVVAAVRKRPEKSRWDSAWALLARAMETGAPDVVVVPATTLATLRQQDWDIPASIERLAGAMSLSRRADRAADRAAARLAGTARTSGLEHHHHHH | failed
4 | MTTDNPLISIYMPTWNRQQLAIRAIKSVLRQDYRHWEMIIVDDCSSSYQQLQQFVEELNDPRVRYTHNARNTGACAVRNQAIMQAQGHYITGIDDDDEWTPNRLSVFLAHKHQLTTHAFLYANDYVCEGEVYSQPASLPLYPKSPYSRRLFYKRNIIGNQVFTWAWRFKASLFDTELKAAQDYDIFLRMVVEYGEPWKVEEATQILHINHGEMQITSSPKKFSGYFHFYRKHKDKFDRASKKYQLFTLYQIRNKRMTWRTLLTLLSVRNSKRLAAGLRGR | failed
5 | MTTEIKKLDPDTAIDIAYDIFLEMAGENLDPADILLFNLQFEERGGVEFVETADDWEEEIGVLIDPEEYAEVWVGLVNEQDEMDDVFAKFLISHREEDREFHVIWKK | not failed
6 | MTTFDAKKLKKEYLDWYNQILEFSNLSNNSVKIDTPFKDNSLDNLKIYALYDQSRDMITLTDDGYTIFGLENNGVSINKFKKRKKIFEEHLSAYGIKYNDKTHEIFVQTNFKNFNKSKHNLLQCLIFVNDMYLLSNPKSQNIFTEDVANKLDEHNIYYGRDIPIIGSSGVVHNFDFFISAKKNQKEKFINVFSNPNNSMIIKSKITDAMQAKKIKRHRQNEFIFILNDSKKEINEHNKNLLHENYISTIDYSELDEKIGLLI | failed
7 | MTTGPALSSSEEGLMSEMPPAWCHTARADHSTPGTSPEMIPDTQGHWMPLRSRGLGALPGAFQAPQPLLSRLRHRLAPPRIVGTVSCRRLRTIVALGAARDSCTVGTQGRPGNSDLPAFPTSQVVRGKMGPGSQRTLVLLLLLLASPGARAFQSCLNKQQLLTTVRQLQQLLKGQETRFTEGIRNMKSRLTALQNTVSKMTPDAPPVSCPALDAPPNGKKFGSKYLVDHEVHFTCNPGFQLVGPSSVVCLANGTWTGEQPRCRDTSECSSQPCHNGGTCVEGVHHYRCICPPGKTGNRCQHQTQAAAPGGVAGDSAYSRAPRCAQVEREQHCSCEAGFHLSGTAGGHSVCQDVNECEIYGQEGRPRLCMHACVNTPGSYRCTCPSGYRILADGKSCEDVDECAGPQHMCPRGTTCINTGGGFQCVNPECPEGSGNISYVKTSPFQCERNPCPMDSRPCRHLPKTISFHYLSLPSNLKTPITLFRMATASVPGHPGPNSLRFGIVGGNSRGHFVMQRSDRQTGELILIQTLEGPQTLEVEVDMSEYLERSFQASHVSKVTIFVSRYDF | failed
8 | MTTIFPPIPDRLRPLLRIAFMCGILATLPILCDVYAADEPPAARDEARPEEAAEPAATSAPAPAEQPVTFAITTILVERNTLFASDRLQEVMAPFVGDGKTADDVEKAREALEKFHHDQGYPTVIVNIPEQSVEEGIIRLQVVEQRINTVTVTGNRYFSREMILGKFPSLQPGGIPHVPTLQAEFTKAGRNPDLKITPAMAPSREVGYVDVELKIEEKLPLHGSLELNNRSSHDTSALRLNGAIRYDNLWQREHSVGLQYQTAPEKTREVQILSGSYVLPDPWHDDRRIVFYGVWSDTNTFASLGDMQVLGKGIIVGGRYLIPLAGKGLYNHSATLGIDYKRFDESAGFKTRVSYLPLSTAYDASLQDSTGYTLFNAGLNFAFRGAVTDQSEMAVKRSEAKGNYLAAILGLERQQKLPLGMGLRARIDGQLSSEPLIPNEQFVAGGMDSVRGYKESEALGDNGFHGTVELRVPDITLGSAMSMTPYVFYDMAAVELKKPLPGENRSQTLQGTGAGVRGMLFKFLEYQVDFAVALSDSDRIKEGDQRVHFRVSCAF | failed
9 | MTTIRRFSCNDLLRFTSVNLDHLTETFNMSFYMTYLARWPDYFHVAEGPGNRVMGYIMGKVEGQGESWHGHVTAVTVSPEYRRQQLAKKLMNLLEDISDKIDKAYFVDLFVRASNTPAIKMYEKLGYIIYRRVLRYYSGEEDGLDMRKALSRDVEKKSVIPLKRPITPDELEYD | failed
10 | MTTKAVLISSGVATVALLLKLSVPVAVDFSVSRAPILWSSLLSWLKPPYLYVVTNGIIITIVASSKYYRSHHDRDEEDEIVVYGGGGYKIQTEEPIVNQHQASPRILEVKDLDTGAHFGFVVANLEAEELESEAVTAVVFDDEEEEKKIIDSAATAEDEIEEELKSVIMVENSDLVESDVIPPPMMIESENLPPIEKPLVTSRFGHRKLMKASQEGGRALRVTKPKKNETLENTWKMITEGKSTPLTRQLYRRSDTFGRGDSGGVDGEVKPVYKKSDTFRDRTNYYQLAETAKVRKEPSLSQEELNRRVEAFIKKFNEEMKLQRMESLRQYKEITSRGV | failed
11 | MTTKPRLCTALLTLAIAVSASAPVLAQSMAGGSAKNRYANQTKLDPYPPEGGWQGLANLLEAAKPGVDTRLDPTPSQITDRIEELLNRGANEEALSLIERREAAIKGQRGADVQLMFQHARALAALGRADEAIAVYSDMTTQFPELPEPWNNLAALYASRGELERAQDSLQMALRANPDYAAARANLGDIQLMMALRTYRQEEARGVPGMKARVEEIESLLKDKQPK | failed
12 | MTTKRVKKMGKEEMKEMFDLVIYAFNQEPTAERQERFEKLLSHTQSYGFLIDEQLTSQVMATPFQVNFHGVRYPMAGIGYVASYPEYRGEGGISAIMKEMLADLAKQKVALSYLAPFSYPFYRQYGYEQTFEQAEYTIKTEDWPRVKRVPGTIKRVSWADGKEVIKDVYLENQRAHSGGVIRETWWLDYTLNRASKPNNQAIYYSSEGKAEGYVIYRIAAGTFEIVEWNYLTNTAFKALAGFIGSHSGSVQSFHWINGFAGKDLNDLMPTPAASVKILPYMMARIVELQTFLEKYPFQSGEKETYSLEIEDSYGPWNEGIWTITIDEQGKATVTKGAAEKEGTAALKADIQTWTQLFLGYRSAETLSFYERLQGDATIAQRLGQRLVKGMPILEDYF | not failed
13 | MTTMQSRERLVKWLQDAYAMEKEAETMMAAMASRIEHYPELKRRIEQHVEETQQQSAGVQRCLELLNGSIPTAKGMLSSVLASMHAAGNSMMTDEVTKGVGISYAFEHLEIASYRALVVAARSAGEQEVAQICEDILQQEIEMAEWLIEHQEAIVVAFLEREQLEGVTAKR | not failed
